Consider 36 sequences from the supplement of paper PMC10567573.

± gives the standard deviation.

This series in a line: protein stability index of a GFP-peptide fusion (GPS, HEK-293T) (PSI 1-6); higher = more stable. The following applies: c terminus: a fixed tail appended.
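Further: 24-mer peptide tiles fused after GFP, lentivirally expressed, FACS-sorted into six equal bins by GFP/DsRed ratio, decoded by Illumina sequencing, PSI is the read-weighted mean bin number.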

CPQCGKCFARKSQLTGHQRIHSGE [ZNF449]: the protein stability index by setting is: (treatment: DMSO) 5.1 ± 0.3; (treatment: MLN4924 1 uM, 8 h) 5.16 ± 0.087.
For SQIQGHKEMSKVWNDLRPKLSCLF [SNX8], in that order: 2.2 ± 0.35 and 2.22 ± 0.22.
Taken in the same sequence, the figures for GTLSMGVPQIFKYGETCFPKGRFE [ZNF24] were 2.83 ± 0.11 and 2.56 ± 0.27.
Regarding ILGPSSAYTQTQFHNLRNTLDGYG [NFE2L1], the protein stability index is, setting by setting: (treatment: DMSO) 2.46 ± 0.17; (treatment: MLN4924 1 uM, 8 h) 2.33 ± 0.25.
Regarding AKSVLKERGLKKIRLGIEGYPTYK [BTBD10], the protein stability index is, setting by setting: (treatment: DMSO) 2.79 ± 0.23; (treatment: MLN4924 1 uM, 8 h) 2.8 ± 0.44.
Take RLRKCYEVGMVKCGSRRERCGYRL [ESR2]: the protein stability index runs as follows: (treatment: DMSO) 2.54 ± 0.4; (treatment: MLN4924 1 uM, 8 h) 2.43 ± 0.29.
On to FTLNFFRSGIQFGSWGSFQLPGLL [CLCN6], for which the protein stability index reads like this: (treatment: DMSO) 2.93 ± 0.36; (treatment: MLN4924 1 uM, 8 h) 3.02 ± 0.97.
As for QRYILYWRKRFTEQPITDFCSVIR [ZNF277], the protein stability index runs as follows: (treatment: DMSO) 1.93 ± 0.23; (treatment: MLN4924 1 uM, 8 h) 2.24 ± 0.26.
As for SLNGVYPRMNEVYTRLGEMNNAVR [CEP70], the protein stability index reads like this: (treatment: DMSO) 2.55 ± 0.21; (treatment: MLN4924 1 uM, 8 h) 3.08 ± 0.31.
Taken in the same sequence, the figures for VYHIECFRCSVCSRQLLPGDEFSL [ISL2] were 2.34 ± 0.14 and 2.4 ± 0.23.
For the sequence GAMLGQTTSEEAVGGATPDQTTSE [HDAC6], the protein stability index by setting is: (treatment: DMSO) 4.91 ± 0.58; (treatment: MLN4924 1 uM, 8 h) 5.59 ± 0.073.
Consider TISVNQTRVNLSSDTESTDLPSST [DLC1], for which the protein stability index is 4.11 ± 0.15 (treatment: DMSO) and 4.41 ± 0.23 (treatment: MLN4924 1 uM, 8 h).
For the sequence NYSYRGYGALSSNLQPPASLQTGN [NOL4L], the protein stability index came to 3.64 ± 0.2 (treatment: DMSO) and 3.8 ± 0.25 (treatment: MLN4924 1 uM, 8 h).
Take MGPAQEAPVAEAWIPQAGPPELNY [ZNF449]: the protein stability index is, setting by setting: (treatment: DMSO) 4.46 ± 0.27; (treatment: MLN4924 1 uM, 8 h) 4.51 ± 0.17.
For KVKKLKNLKTLDSKPGVYTSYKPY [DENND6A], the protein stability index runs as follows: (treatment: DMSO) 2.66 ± 0.28; (treatment: MLN4924 1 uM, 8 h) 2.81 ± 0.42.
As to LQLGAAKKPPVTFAEKGELRKSIF [TRIM29], the protein stability index was determined as 3.14 ± 0.16 (treatment: DMSO) and 3.25 ± 0.21 (treatment: MLN4924 1 uM, 8 h).
Regarding QAQKCYRDLALVSRDGMNIVLNKI [INTS3], the protein stability index is, setting by setting: (treatment: DMSO) 2.29 ± 0.23; (treatment: MLN4924 1 uM, 8 h) 2.61 ± 0.44.
Taken in the same sequence, the figures for PPRRGVSGDRDENSFSLNSSISSS [MAP2] were 4.84 ± 0.14 and 4.74 ± 0.24.
Taken in the same sequence, the figures for YPWDENHCKEKRKTSLLDQLTNTS [NETO1] were 3.94 ± 0.21 and 4.07 ± 0.25.
Take DPLLLILSFLDYRDLINCCYVSRR [FBXO3]: the protein stability index is, setting by setting: (treatment: DMSO) 2.91 ± 0.74; (treatment: MLN4924 1 uM, 8 h) 3.05 ± 0.82.
As for LDMSQNVSLVTAELSKDAQASAAP [SLC29A1], the protein stability index was determined as 5.16 ± 0.12 (treatment: DMSO) and 5.08 ± 0.095 (treatment: MLN4924 1 uM, 8 h).
On to ENLLLASKLKGAAVKLADFGLAIE [CAMK2A], for which the protein stability index by setting is: (treatment: DMSO) 2.35 ± 0.25; (treatment: MLN4924 1 uM, 8 h) 2.7 ± 0.29.
Consider HKRAIMPYGVYKKQQKDPSEEAAV [ATE1], for which the protein stability index by setting is: (treatment: DMSO) 4.3 ± 0.32; (treatment: MLN4924 1 uM, 8 h) 4.44 ± 0.11.
As for FSSLNHIVEKRVLAHLAPLFDNPK [INTS3], the protein stability index runs as follows: (treatment: DMSO) 2.27 ± 0.18; (treatment: MLN4924 1 uM, 8 h) 2.4 ± 0.44.
Taken in the same sequence, the figures for VTSYCRSATLVGFTVGSVLGQILV [SLC19A2] were 3.5 ± 0.39 and 2.84 ± 0.6.
RLHNLYSTPRCAQQAALPRLSRRM [CBY2]: the protein stability index (treatment: DMSO) turned out to be 2.28 ± 0.31 and the protein stability index (treatment: MLN4924 1 uM, 8 h) came to 2.55 ± 0.4.
As for RAALISRRHLQFWKSHLRNVQRPL [RHOBTB2], the protein stability index stood at 2.56 ± 0.13 (treatment: DMSO) and 2.56 ± 0.22 (treatment: MLN4924 1 uM, 8 h).
For LPPSPRFLVMKGQEGAASKVLGRL [SLC2A12], in that order: 3.34 ± 0.28 and 3.48 ± 0.83.
Take LIGRPGNKTQQVIHIIDFGLAKEY [CSNK1G3]: the protein stability index by setting is: (treatment: DMSO) 2.38 ± 0.69; (treatment: MLN4924 1 uM, 8 h) 2.4 ± 0.43.
Consider AAGVDHVILAVSYMSQVLEKEMKA [GMPPB], for which the protein stability index reads like this: (treatment: DMSO) 2.25 ± 0.62; (treatment: MLN4924 1 uM, 8 h) 2.44 ± 0.23.
In the case of PPELNYGATGECQNFLDPGYPLPK [ZNF449], the protein stability index by setting is: (treatment: DMSO) 4.61 ± 0.2; (treatment: MLN4924 1 uM, 8 h) 4.67 ± 0.13.
Take KQYAMQRPNDDSLAFLDKIKSVKE [IQUB]: the protein stability index was 3.64 ± 0.35 (treatment: DMSO) and 3.87 ± 0.3 (treatment: MLN4924 1 uM, 8 h).
As for GHGSHSFIYYENMLLGVPRLRQLK [PKD2L1], the protein stability index reads like this: (treatment: DMSO) 2.17 ± 0.12; (treatment: MLN4924 1 uM, 8 h) 2.27 ± 0.034.
On to MCNVKAPLGSPSPRPRRAKRFASL [ADAMTS4], for which the protein stability index worked out at 3.69 ± 0.26 (treatment: DMSO) and 3.77 ± 0.21 (treatment: MLN4924 1 uM, 8 h).
With QPVVDTFDIRILMAKSVKYTVNFL [CARM1], the protein stability index runs as follows: (treatment: DMSO) 2.79 ± 0.7; (treatment: MLN4924 1 uM, 8 h) 2.62 ± 0.56.
Regarding ESVVSSAVPAAATRTTSFKGTSPS [KCTD10], the protein stability index is, setting by setting: (treatment: DMSO) 5.09 ± 0.056; (treatment: MLN4924 1 uM, 8 h) 5.25 ± 0.21.
